Reference: article PMC3229523, “Identification of Lactoferricin B Intracellular Targets Using an Escherichia coli Proteome Chip” (PLoS ONE, 2011)
Ends that are not written are not given here. * marks the point of attachment. Biotin = O=C1N[C@H]2[C@H](CS[C@H]2CCCCC(=O)*)N1

Key:
Experiment in all cases: peptide or protein array; E. coli proteome chip: purified His-tagged proteins printed in duplicate on Fullmoon slides, blocked with 1% BSA; 10 nM N-terminal biotinylated LfcinB with 1% BSA, room temperature, 1 h; detected with DyLight 649-labeled streptavidin, ratio to DyLight 549-labeled anti-His antibody; ProCAT normalisation, local cut-off; triplicate chips
Details in all cases: both partners purified
YobG = target: T1, YobG (E. coli K-12, UniProt P64512 1-47)
T1 construct: YobG, E. coli K-12
T1 chain (looked up): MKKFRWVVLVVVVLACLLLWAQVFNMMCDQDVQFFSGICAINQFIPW

[1] = target: T2, phosphoenolpyruvate carboxylase (E. coli K-12, UniProt P00864 1-883)
T2 construct: Ppc, phosphoenolpyruvate carboxylase, E. coli K-12; also called Ppc
T2 sequence (looked up): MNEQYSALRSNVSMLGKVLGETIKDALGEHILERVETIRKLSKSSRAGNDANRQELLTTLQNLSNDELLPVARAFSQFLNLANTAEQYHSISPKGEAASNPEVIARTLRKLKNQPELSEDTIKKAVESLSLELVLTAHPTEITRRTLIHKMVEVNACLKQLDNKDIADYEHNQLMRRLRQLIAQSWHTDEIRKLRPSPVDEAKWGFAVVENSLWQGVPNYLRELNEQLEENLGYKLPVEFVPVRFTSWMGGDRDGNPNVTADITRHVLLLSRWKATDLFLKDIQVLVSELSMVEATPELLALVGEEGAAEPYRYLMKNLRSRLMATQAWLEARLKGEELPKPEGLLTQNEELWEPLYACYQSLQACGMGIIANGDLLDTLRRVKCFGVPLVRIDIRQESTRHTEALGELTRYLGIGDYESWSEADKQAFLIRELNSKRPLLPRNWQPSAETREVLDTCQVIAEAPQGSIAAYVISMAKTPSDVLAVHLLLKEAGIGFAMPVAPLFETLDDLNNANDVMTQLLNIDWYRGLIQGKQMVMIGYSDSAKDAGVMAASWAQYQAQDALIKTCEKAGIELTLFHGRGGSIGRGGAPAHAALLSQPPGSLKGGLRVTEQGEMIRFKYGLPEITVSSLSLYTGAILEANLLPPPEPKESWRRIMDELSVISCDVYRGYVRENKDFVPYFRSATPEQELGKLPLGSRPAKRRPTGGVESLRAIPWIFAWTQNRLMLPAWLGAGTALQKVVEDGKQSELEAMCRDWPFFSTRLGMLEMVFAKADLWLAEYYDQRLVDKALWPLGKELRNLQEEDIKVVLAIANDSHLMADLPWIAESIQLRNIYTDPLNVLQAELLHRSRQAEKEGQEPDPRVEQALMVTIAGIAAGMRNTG

CbpA = target: T3, CbpA (E. coli K-12, UniProt P36659 1-306)
T3 construct: CbpA, E. coli K-12
T3 sequence (looked up): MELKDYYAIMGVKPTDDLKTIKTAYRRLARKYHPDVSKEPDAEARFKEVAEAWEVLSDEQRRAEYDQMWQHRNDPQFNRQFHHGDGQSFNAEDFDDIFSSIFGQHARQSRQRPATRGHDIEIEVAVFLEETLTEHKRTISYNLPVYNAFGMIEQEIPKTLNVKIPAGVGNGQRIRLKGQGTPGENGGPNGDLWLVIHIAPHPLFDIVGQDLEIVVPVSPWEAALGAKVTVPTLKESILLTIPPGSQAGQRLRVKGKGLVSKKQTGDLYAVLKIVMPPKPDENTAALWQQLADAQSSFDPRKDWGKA

YhiF = target: T4, YhiF (E. coli K-12, UniProt P37195 1-176)
T4 construct: YhiF, E. coli K-12
T4 sequence (looked up): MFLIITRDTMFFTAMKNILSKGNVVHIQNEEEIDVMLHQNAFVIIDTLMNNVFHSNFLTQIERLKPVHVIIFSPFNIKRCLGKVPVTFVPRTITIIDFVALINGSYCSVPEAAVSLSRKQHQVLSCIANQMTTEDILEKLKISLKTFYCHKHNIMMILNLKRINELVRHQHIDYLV

YdhS = target: T5, YdhS (E. coli K-12, UniProt P77148 1-534)
T5 construct: YdhS, E. coli K-12
T5 sequence (looked up): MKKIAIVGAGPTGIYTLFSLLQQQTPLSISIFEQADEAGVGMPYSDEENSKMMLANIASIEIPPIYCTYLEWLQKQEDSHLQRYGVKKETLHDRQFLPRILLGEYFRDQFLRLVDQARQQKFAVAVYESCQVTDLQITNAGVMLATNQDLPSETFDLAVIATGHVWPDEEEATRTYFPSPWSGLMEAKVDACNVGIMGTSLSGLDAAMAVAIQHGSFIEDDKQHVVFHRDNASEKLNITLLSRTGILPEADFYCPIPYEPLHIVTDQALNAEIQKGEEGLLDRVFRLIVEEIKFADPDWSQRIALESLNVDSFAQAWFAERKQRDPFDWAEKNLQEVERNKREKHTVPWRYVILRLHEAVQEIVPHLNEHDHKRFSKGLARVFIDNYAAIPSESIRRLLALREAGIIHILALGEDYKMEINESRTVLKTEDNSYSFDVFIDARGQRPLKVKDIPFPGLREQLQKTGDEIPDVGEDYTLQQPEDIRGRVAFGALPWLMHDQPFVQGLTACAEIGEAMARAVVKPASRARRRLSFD

Measured: binding result

B1: N-terminal biotinylated Lactoferricin B (peptide, UniProt P24627 36-60, looked up)
peptide: Biotin-FKCRRWQWRMKKLGAPSITCVRRAF
modifications: ends and bridges not checked
notes: lactoferricin B (LfcinB), cationic antimicrobial peptide of 25 amino acids; also called biotinylated LfcinB; biotin-labeled LfcinB; source: bought: Kelowna Inc
binds: all assays above
